This passage reports self-cleavage results from the RNAGym collection of RNA variant scans (doi:10.7554/elife.80360).

First the molecules themselves.
B1: CPEB3 Ribozyme (parent)
chain: GGGGGCCACAGCAGAAGCGUUCACGUCGCGGCCCCUGUCAGAUUCUGGUGAAUCUGCGAAUUCUGCUGU

The variants in this data set derive from B1. Put plainly: self-cleavage, relative activity (ratio to wild type); higher = more cleavage; co-transcriptional.
With GGGGGCCACAGCGGAAGCGUUCUCGUCGCGGCCCCUGUCAGAUUCUGGUGAAUCUGCGAAUUCUGCUGU [A13G A23U], the self-cleavage came out at 0.997.

Consider GGGGGCCACAGCGGAAGCGUUCACGUCGCGGCCCCUGUCAGAUUCUGGUGAUUCUGCGAAUUCUGCUGU [A13G A52U], for which the self-cleavage was 0.989.

As to GGGGGCCACAGCGGAAGCGUUCACGUCGCGGCCCCUGUCAGAUUCUGGUGAAUCUGCGAAUUCUGUUGU [A13G C66U], the self-cleavage was determined as 0.756.

Turning to GGGGGCCACAGCGGAAGCGUUCACGUCGCGGCCCCUGUCAGAUUCUGGUGAAUCUGCGAAUUCUGAUGU [A13G C66A], the self-cleavage was 0.295.

As to GGGGGCCACAGCGGAAGCGUUCACGUCGCGGCCCCUGUCAGAUUCUCGUGAAUCUGCGAAUUCUGCUGU [A13G G47C], the self-cleavage was found to be 0.997.

Take GGGGGCCACAGCGGAAGCGUUCACGUCGCGCCCCCUGUCAGAUUCUGGUGAAUCUGCGAAUUCUGCUGU [A13G G31C]: the self-cleavage was 0.241.

As for GGGGGCCACAGCGGAAGCGUUCAGGUCGCGGCCCCUGUCAGAUUCUGGUGAAUCUGCGAAUUCUGCUGU [A13G C24G], the self-cleavage amounted to 0.368.

As for GGGGGCCACAGCGGAAGCGUUCACGUCGCGGCCCCUGUCAGAUUCUGGUGAAUCUGCGAAUUCUGCUGU [A13G], the self-cleavage was 0.97.

For the variant GGGGGCCACAGCUGAAGCGUUCACGUCGCGGCCCCUGUCAGAUUCUGGUGAAUCUGCGAAUUCUGCUGU [A13U], the self-cleavage turned out to be 0.888.

Turning to GGGGGCCACAGCGGAAGCGUUCACGUCGCGGCCCCUGUCAGAUUCUGGUGAAUCUGCGAAUUCUGCUGA [A13G U69A], the self-cleavage was 1.

As for GGGGGCCACAGCCGAAGCGUUCACGUCGCGGCCCCUGUCAGAUUCUGGUGAAUCGGCGAAUUCUGCUGU [A13C U55G], the self-cleavage amounted to 0.322.

For the variant GGGGGCCACAGCCGAAGCGUUCACGUCGCGGCCCCUGUCAGAUUCUGGUGAAUCAGCGAAUUCUGCUGU [A13C U55A], the self-cleavage came to 0.315.

On to GGGGGCCACAGCCGAAGCGUUCACGUCGCGGCCCCUGUCAGAUUCUGGUGAAUCUGCGAAUUCCGCUGU [A13C U64C], for which the self-cleavage was found to be 0.614.

On to GGGGGCCACAGCGGAAGCGUUCACGUCGCGGCCCCUGUCAGAUUCCGGUGAAUCUGCGAAUUCUGCUGU [A13G U46C], for which the self-cleavage was found to be 0.927.

For the variant GGGGGCCACAGCGGAAGCGUUCACGUCGCGGCCCCUGUCAGAUUCUGGUGAAUCUGCGAAUUCUACUGU [A13G G65A], the self-cleavage turned out to be 0.653.

For the variant GGGGGCCACAGCGGAAGCGUUCACGUCGCGGCCCCUGUCAGAUUCUGGUGAAUCUGCGAAUUCUCCUGU [A13G G65C], the self-cleavage was 0.345.

On to GGGGGCCACAGCGGAAGUGUUCACGUCGCGGCCCCUGUCAGAUUCUGGUGAAUCUGCGAAUUCUGCUGU [A13G C18U], for which the self-cleavage turned out to be 0.382.

GGGGGCCACAGCGGAAGCGUUCACGUCGCGGCCCCUGUCAGAUUGUGGUGAAUCUGCGAAUUCUGCUGU [A13G C45G]: the self-cleavage was determined as 0.847.

With GGGGGCCACAGCGGAAGCGUUCACGUCGCGGCCCCUGUCAGAUUCUGGUGAAUCUGAGAAUUCUGCUGU [A13G C57A], the self-cleavage is 0.448.

As for GGGGGCCACAGCCGAAGCGUUCACGUCGCGGCCCCUGUCAGAUUCUGGUGAAUCUGCGAAGUCUGCUGU [A13C U61G], the self-cleavage was 0.406.

As to GGGGGCCACAGCCGAAGCGUUCACGUCGCGGCCCCUGUCAGAUUCUGGUGAAUCUGCGAAAUCUGCUGU [A13C U61A], the self-cleavage was 0.459.

As to GGGGGCCACAGCUGAAGCGUUCACGUCGCGGCCCCUGUCCGAUUCUGGUGAAUCUGCGAAUUCUGCUGU [A13U A40C], the self-cleavage was found to be 0.163.

In the case of GGGGGCCACAGCUGAAGCGUUCACGUCGCGGCCCCUGUCUGAUUCUGGUGAAUCUGCGAAUUCUGCUGU [A13U A40U], the self-cleavage is 0.265.

As for GGGGGCCACAGCGGAAGCGCUCACGUCGCGGCCCCUGUCAGAUUCUGGUGAAUCUGCGAAUUCUGCUGU [A13G U20C], the self-cleavage stood at 0.199.

Regarding GGGGGCCACAGCGGAAGCGAUCACGUCGCGGCCCCUGUCAGAUUCUGGUGAAUCUGCGAAUUCUGCUGU [A13G U20A], the self-cleavage was 0.0779.

Consider GGGGGCCACAGCGGAAGCGUUCACGUCACGGCCCCUGUCAGAUUCUGGUGAAUCUGCGAAUUCUGCUGU [A13G G28A], for which the self-cleavage amounted to 0.139.

Turning to GGGGGCCACAGCGGAAGCGUUCACGUCGCGGCCCCUGUCAGAUCCUGGUGAAUCUGCGAAUUCUGCUGU [A13G U44C], the self-cleavage came out at 0.824.

As to GGGGGCCACAGCGGAAGCGUUCACGUCGCGGCCCCUGUCAGAUACUGGUGAAUCUGCGAAUUCUGCUGU [A13G U44A], the self-cleavage came to 0.877.

As for GGGGGCCACAGCUGAAGAGUUCACGUCGCGGCCCCUGUCAGAUUCUGGUGAAUCUGCGAAUUCUGCUGU [A13U C18A], the self-cleavage came out at 0.132.

Consider GGGGGCCACAGCGGAAGCGUUCACGUCGCGGCCCCGGUCAGAUUCUGGUGAAUCUGCGAAUUCUGCUGU [A13G U36G], for which the self-cleavage was 0.227.

GGGGGCCACAGCGGAAGCGUUCACGUCGCGGCCCAUGUCAGAUUCUGGUGAAUCUGCGAAUUCUGCUGU [A13G C35A]: the self-cleavage amounted to 0.167.

Consider GGGGGCCACAGCGGAAGCGUUCACGUCGCGGCCCUUGUCAGAUUCUGGUGAAUCUGCGAAUUCUGCUGU [A13G C35U], for which the self-cleavage is 0.952.

As to GGGGGCCACAGCGGAAGCGUUCACGUCGCGGCCCCUGUCAGAUUCUGGUGAAUCUGCGAAAUCUGCUGU [A13G U61A], the self-cleavage stood at 0.834.

Consider GGGGGCCACAGCCGAAGCGUUCACGUCGCGGCCCCUGUCAGAUUCUGGUGAAUCUGCGAAUACUGCUGU [A13C U62A], for which the self-cleavage was determined as 0.348.

Regarding GGGGGCCACAGCCGAAGCGUUCACGUCGCGGCCCCUGUCAGAUUCUGGUGAAUCUGCGAAUCCUGCUGU [A13C U62C], the self-cleavage worked out at 0.475.

GGGGGCCACAGCUGAAGCGUUCACGUCGCGGCCCCUGUCAGAUUCUGGUGAAUCUGCGUAUUCUGCUGU [A13U A59U]: the self-cleavage is 0.464.

Turning to GGGGGCCACAGCGGAACCGUUCACGUCGCGGCCCCUGUCAGAUUCUGGUGAAUCUGCGAAUUCUGCUGU [A13G G17C], the self-cleavage amounted to 0.052.

Consider GGGGGCCACAGCUGAAGCGUUCCCGUCGCGGCCCCUGUCAGAUUCUGGUGAAUCUGCGAAUUCUGCUGU [A13U A23C], for which the self-cleavage was 0.793.

Turning to GGGGGCCACAGCGGAAGCGUUCACGUCGCGGCCCCUGUCAGAUUCUGGUGAAUCAGCGAAUUCUGCUGU [A13G U55A], the self-cleavage came out at 0.722.
